Results from the supplement of paper PMC10201428.
± gives the standard deviation of the averaged measurements.

Tested on: VchCAST RNA-guided transposition machinery (E. coli BL21(DE3) host, lacZ target)
Experiment: relative integration efficiency (T-RL orientation) vs wild-type transposon end (log2 (normalized fold change)); transposon end mutated: right end (5 bp flank + 75 bp right end); higher = more efficient transposition
Procedure: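 Pooled, barcoded VchCAST (Tn6677) mini-transposon donor libraries; each variable transposon-end sequence sits in a fixed pDonor mini-transposon context (10-bp barcode and cargo not included). Left- or right-end libraries were co-transformed with pEffector (TniQ-Cascade, TnsABC, lacZ crRNA, T7, 0.1 mM IPTG) into E. coli BL21(DE3) and grown 18 h at 37 C. T-LR and T-RL junction amplicons were sequenced; output/input barcode fold change was normalised to the mean of four wild-type barcodes and log2-transformed. Two biological replicates; zero-count/undetected variants carry floor values (-10 / -15), censored here. Barcode uncoupling by PCR recombination adds noise.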

Sequence | relative integration efficiency (log2)
ACAAAACTTGATACAACCATAAAATGATAATTACACCCATAAATTGATAATTATCACACCCATAAATTGATATTGCCTCTGATCATAGTCAGACCAACATTGCTACGACCCGTATTCGCACCGACAC | -6.59 ± 0.45
ACAGGGTTTGATACAACCATAAAATGATAATTACACCCATAAATTGATAATTATCACACCCATAAATTGATATTGCCTCTGATCATAGTCAGACCAACATTGCTACGACCCGTATTCGCACCGACAC | -7.26 ± 0.17
ACATAACATGATACAACCATAAAATGATAATTACACCCATAAATTGATAATTATCACACCCATAAATTGATATTGCCTCTGATCATAGTCAGACCAACATTGCTACGACCCGTATTCGCACCGACAC | -5.71 ± 0.74
ACATGGTGTGATACAACCATAAAATGATAATTACACCCATAAATTGATAATTATCACACCCATAAATTGATATTGCCTCTGATCATAGTCAGACCAACATTGCTACGACCCGTATTCGCACCGACAC | -6.87 ± 0.18
ACATTACTTGATACAACCATAAAATGATAATTACACCCATAAATTGATAATTATCACACCCATAAATTGATATTGCCTCTGATCATAGTCAGACCAACATTGCTACGACCCGTATTCGCACCGACAC | -6.45 ± 0.27
ACATTAGTCGATACAACCATAAAATGATAATTACACCCATAAATTCATAATTATCACACCCAATTTAACTATAACGCTCTGATCATAGTCAGACCAACATTGCTACGACCCGTATTCGCACCGACAC | -7.36 ± 0.82
ACATTAGTGGATACAACCATAAAATGATAATTACACCCATAAATGGATCATTATCACACCCAATTTAACTATAACGCTCTGATCATAGTCAGACCAACATTGCTACGACCCGTATTCGCACCGACAC | -6.91 ± 0.47
ACATTAGTTCATACAACCATAAAATGATAATTACACCCATAAATTCATAATTATCACACCCAATTTAACTATAACGCTCTGATCATAGTCAGACCAACATTGCTACGACCCGTATTCGCACCGACAC | -6.79 ± 0.48
ACATTAGTTCATACAACCATAAAATGATAATTACACCCATAAATTGATAATTATCACACCCAATTTAACTATAACGCTCTGATCATAGTCAGACCAACATTGCTACGACCCGTATTCGCACCGACAC | -7.98 ± 0.089
ACATTAGTTCATACAACCATAAAATGATAATTACACCCATAAATTGATCATTATCACACCCAATTTAACTATAACGCTCTGATCATAGTCAGACCAACATTGCTACGACCCGTATTCGCACCGACAC | -7.24 ± 0.69
ACATTGGTCGATACAACCATAAAATGATAATTACACCCATAAATGGATAATTATCACACCCAATTTAACTATAACGCTCTGATCATAGTCAGACCAACATTGCTACGACCCGTATTCGCACCGACAC | -7.16 ± 0.89
ACATTGGTCGATACAACCATAAAATGATAATTACACCCATAAATGGATCATTATCACACCCAATTTAACTATAACGCTCTGATCATAGTCAGACCAACATTGCTACGACCCGTATTCGCACCGACAC | -7.2 ± 0.28
ACATTGGTGGATACAACCATAAAATGATAATTACACCCATAAATTGATAATTATCACACCCAATTTAACTATAACGCTCTGATCATAGTCAGACCAACATTGCTACGACCCGTATTCGCACCGACAC | -6.88 ± 0.39
ACATTGGTTCATACAACCATAAAATGATAATTACACCCATAAATGGATCATTATCACACCCAATTTAACTATAACGCTCTGATCATAGTCAGACCAACATTGCTACGACCCGTATTCGCACCGACAC | -7.4 ± 0.26
ACATTGGTTCATACAACCATAAAATGATAATTACACCCATAAATTGATCATTATCACACCCAATTTAACTATAACGCTCTGATCATAGTCAGACCAACATTGCTACGACCCGTATTCGCACCGACAC | -7.14 ± 0.11
ACATTGTGGGATACAACCATAAAATGATAATTACACCCATAAATTGATAATTATCACACCCATAAATTGATATTGCCTCTGATCATAGTCAGACCAACATTGCTACGACCCGTATTCGCACCGACAC | -5.61 ± 0.22
ACATTTCAACATACAACCATAAAATGATAATTACACCCATAAATTGATAATTATCACACCCATAAATTGATATTGCCTCTGATCATAGTCAGACCAACATTGCTACGACCCGTATTCGCACCGACAC | -6.21 ± 0.12
